The supplement of paper PMC7125110
± gives the standard error. Variants at the floor of the assay were thinned out.

B1: glmS ribozyme (parent)
chain: AUAAAAGCGCCAGAACUACAGAAAUGUAGUUGACGAGGAGGAGGUUUAUCGAAUUUUCGGCGGAUGCCUCCAAA

Variants of: B1
Test: self-cleavage kobs at 2500 uM GlcN6P; higher = faster cleavage; RNA array
Conditions: with glucosamine-6-phosphate
Procedure, shortened: (§1)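 A hybridised Cy3 probe tracked barcoded ribozyme variants, transcribed in situ by E. coli RNA polymerase on sequenced MiSeq chips, at 37 °C. The variants received 40 μM to 10 mM glucosamine-6-phosphate in HEPES/KCl/Mg(OAc)2 buffer. kobs came from decay fits and kcat and KM from weighted Michaelis–Menten fits.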

| Variant | self-cleavage kobs at 2500 uM GlcN6P |
| --- | --- |
| AUAAAAGCGCCACAACUACAGAAAUGUAGUUGACGAGGAGAAGGUUUAUCGAAUUUUCGGCCGAUGCCUCCAAA [G13C G41A G62C] | < 1e-05 s⁻¹ |
| AUAAAAGCGCCAUAACUACAGAAAUGUAGUUGACGAGGAGGAGGUUUUUCGAAUUUUCCGCUGAUGCCUCCAAA [G13U A48U G59C G62U] | < 1e-05 s⁻¹ |
| AUAAAAGCGCCAGCACUACAGAAAUGUAGUUGACGAGGCGGAGGUUUAUCGAAUUUUCGGCGGAUGCCUCUAAA [A14C A39C C71U] | 4.93e-05 ± 1.7e-05 s⁻¹ |
| AUAAAAGCGCCACAACUACAGAAAUGUAGUUGACGAGGAGGAGCUUUAUCGAUUUUUCGGCGGAUGCCUCCAAA [G13C G44C A53U] | < 1e-05 s⁻¹ |
| AUAAAAGCGCCAGCACUACAGAAAUGUAGUUGACGAGGAGGAGGAUUAUCGAAUUUUCGGCGGUUGCCUCCAAA [A14C U45A A64U] | 4.3e-05 ± 1.9e-05 s⁻¹ |
| AUAAAAGCGCCACAUCUACAGAAAUGUAGUUGACGAGGAGUGCGUUUAUCGAAUUUUCGGCGGAUGCCUCCAAA [G13C A15U G41U A42G G43C] | < 1e-05 s⁻¹ |
| AUAAAAGCGCCAGCAAUACAGAAAUGUAGUUGACGAGGAGGAGGUUUAUCGAAUUUUCGGCGAAUGCCUCCAAA [A14C C16A G63A] | < 1e-05 s⁻¹ |
| AUAAAAGCGCCAGCAUUACAGAAAUGUAGUUGACGAGGAGGACGUUUAUCGAAUUUUCGGCGGAUGCCUCCAAA [A14C C16U G43C] | < 1e-05 s⁻¹ |
| AUAAAAGCGCCACAACUACAGAAAUGUAGUGGACGGGGAGGAGGUAUAUCGAAUUUUCGGCGGAUGCCUGCAAA [G13C U31G A36G U46A C70G] | < 1e-05 s⁻¹ |
| AUAAAAGCGCCAGCACUACAGAAAUGUAGUUGAGGAGGAGGAGGUUUAUCGAAUUUUCGGCUGAUGCCUCCAAA [A14C C34G G62U] | < 1e-05 s⁻¹ |
| AUAAAAGCGCCAUAACUACAGAAAUGUAGUUGACGAGGAGGAGGUUUAUCGACUUUUCGGCGGAUGCCUCCAAA [G13U A53C] | 9.93e-05 ± 1.9e-05 s⁻¹ |
| AUAAAAGCGCCAGCACUACAGAAAUGUAGUUGACGAGGCGGAGGUUUAUCGAAUUUUCGGCGGAGGCCUCCAAA [A14C A39C U65G] | < 1e-05 s⁻¹ |
| AUAAAAGCGCCAAAACUACAGAAAUGUAGAUGACGAGGAGGAGGAUUAUCGAAUUUGCGUCGGACGCGUCCAAA [G13A U30A U45A U57G G60U U65C C68G] | < 1e-05 s⁻¹ |
| AUAAAAGCGCCACAACUACAGAAAUGUAGUUGACGAGGAGGACGUUUAUCGAAUUUGCGGCGGAUGCCUCCAAA [G13C G43C U57G] | < 1e-05 s⁻¹ |
| AUAAAAGCGCCAGCACUACAGAAAUGUACUUGACGAGGAGGAGGUUUAUCGAAUUUUCGGCGGGUGCCUCCAAA [A14C G29C A64G] | 5.47e-05 ± 2e-05 s⁻¹ |
| AUAAAAGCGCCAUGACUACAGAAAUGUAGUUGACGAGGAGGAGGUUCAUCGAAUUUUCGGCGGAUGCCUCCAAA [G13U A14G U47C] | 8e-05 ± 2.7e-05 s⁻¹ |
| AUAAAAGCGCCAGCAUUACAGAAAUGUAGUUGACGAGGAGGAGGUUUAUCGAAUUUUCGGCGGAUGCGUCCAAA [A14C C16U C68G] | 9.4e-05 ± 2.8e-05 s⁻¹ |

| Variant | self-cleavage kobs at 2500 uM GlcN6P |
| --- | --- |
| AUAAAAGCGCCAGCACUACAGAAAUGUAGGUGACGAGGAGGGGGUUUAUCGACUUUUCGGCGGAUGCCUCCAAA [A14C U30G A42G A53C] | 7.92e-05 ± 2.7e-05 s⁻¹ |
| AUAAAAGCGCCAGCACUACAGAAAUGUAGUUGGGGACGAGGAGGUUUAUCGAAUUUUCGCCGGAUGCCUCCAAA [A14C A33G C34G G37C G60C] | < 1e-05 s⁻¹ |
| AUAAAAGCGCCAUAAUUACAGAAAUGUAGUUGACGAGGUGGAGGUUUAUCGAGUUUUCGGCGGAUGCCUCCAAA [G13U C16U A39U A53G] | 0.000359 ± 0.00012 s⁻¹ |
| AUAAAAGCGCCAAAACUACAGAAAUGUAGUUGACAAGGAGGAGAUUUAUCGAAUUUUCGGCGGAUGCCUCCAAA [G13A G35A G44A] | < 1e-05 s⁻¹ |
| AUAAAAGCGCCAAAACUACAGAAAUGUAGAUGACGAGGAGGAGGUUUAUCGAAUUUUAGGCGGAUGCCUCCAAA [G13A U30A C58A] | 0.000138 ± 3.4e-05 s⁻¹ |
| AUAAAAGCGCCAUAACUACAGAAAUGUAGUUGACAAGGAGGAGGUUUAUCGAAUUUACGGCGGAGGCCUCCAAA [G13U G35A U57A U65G] | < 1e-05 s⁻¹ |
| AUAAAAGCGCCAUAACUACAGAAAUGUAGUUGACGAGUAGGAGGUUUAUCGAAUUUUCGGCGGAUGCUUCCAAA [G13U G38U C68U] | < 1e-05 s⁻¹ |
| AUAAAAGCGCCAUAACUACAGAAAUGUAGUUGACGAGAAGGAGGUUUAUCGAAUAUUCGGCGGUUGCCUCCAAA [G13U G38A U55A A64U] | < 1e-05 s⁻¹ |
| AUAAAAGCGCCAGCACUACAGAAAUGUAGUGGACGAGGGGGAGGUUUAUCGAAUUUUCGGCGGAUUCCUCCAAA [A14C U31G A39G G66U] | 0.00126 ± 0.00036 s⁻¹ |
| AUAAAAGCGCCACAACUACAGAAAUGUAGUUGCCGAGGAGGAGGUUCAUCGAAUUUUCGGCGGUUGCCUACAAA [G13C A33C U47C A64U C70A] | < 1e-05 s⁻¹ |
| AUAAAAGCGCCACAACUACAGAAAUGUAGUUUACGAGUAGGAGGUUGUUCGAAUUUUCGGCGGAUGCCUCCAAA [G13C G32U G38U U47G A48U] | < 1e-05 s⁻¹ |
| AUAAAAGCGCCACAAUUACAGAAAUGUAGUUGACGAGGAGGAGGUUUAUCGAAUUUUCGGCGGAUGCCUCUAAA [G13C C16U C71U] | 7.64e-05 ± 1.7e-05 s⁻¹ |
| AUAAAAGCGCCACAACUACAGAAAUGUAGUUGAAGAGGAGGAGGUUUAUCGAAUUUUCGGCGGAUGUCUCCAAA [G13C C34A C67U] | < 1e-05 s⁻¹ |
| AUAAAAGCGCCAGCACUACAGAAAUGUAGUCGACGGGCAGUAGGUUUAUCUAAUUUUCGGCGGAUGCCUCCAAA [A14C U31C A36G G38C G41U G51U] | < 1e-05 s⁻¹ |
| AUAAAAGCGCCAUAACUACAGAAAUGUAGUUGACGAGGAGGAGGUUUCUCGAAUUUUCGGAGGAUGCCUCCAAA [G13U A48C C61A] | < 1e-05 s⁻¹ |
| AUAAAAGCGCCAUAACUACAGAAAUGUAGUUGACGAGGAGGAGGUUGAUCGAAAUUUCGGCAGAUGCCUCCAAA [G13U U47G U54A G62A] | < 1e-05 s⁻¹ |
| AUAAAAGCGCCAGCACUACAGAAAUGUAGGUGACGAGGAGGAGGUUUAUCGGAUUUUCGGCGGAUGCCUCCAAA [A14C U30G A52G] | 4.27e-05 ± 2.1e-05 s⁻¹ |

Variants of: B1
Test: self-cleavage kobs at 10000 uM GlcN6P; higher = faster cleavage; RNA array
Conditions: with glucosamine-6-phosphate
Procedure, shortened: as §1

| Variant | self-cleavage kobs at 10000 uM GlcN6P |
| --- | --- |
| AUAAAAGCGCCAUGACUACAGAAAUGUAGUUGACGAGGAGGAGGUUCAUCGAAUUUUCGGCGGAUGCCUCCAAA [G13U A14G U47C] | 0.000208 ± 5.4e-05 s⁻¹ |
| AUAAAAGCGCCAUAACUACAGAAAUGUAGUUGACAAGGAGGAGGUUUAUCGAAUUUACGGCGGAGGCCUCCAAA [G13U G35A U57A U65G] | < 1e-05 s⁻¹ |
| AUAAAAGCGCCACAAUUACAGAAAUGUAGUUGACGAGGAGGAGGUUUAUCGAAUUUUCGGCGGAUGCCUCUAAA [G13C C16U C71U] | 0.000169 ± 5.1e-05 s⁻¹ |
